Laboratory results taken from US20230074436A1 (DENALI THERAPEUTICS, published 2023).
No end group written: not given here. *: point of attachment. Biotin = O=C1N[C@H]2[C@H](CS[C@H]2CCCCC(=O)*)N1

Legend:
[1] = target: T1, asyn_113-127_126A (human); experiment: Ala-scan peptide ELISA, row C, run 2
T1 construct: substitution is already in the entry; also called pep16
T1 peptide: Biotin-LEDMPVDPDNEAYAM
Procedure: (§1) 96-well Nunc plates were coated with 50 μL per well of 1 μg/mL streptavidin (from Jackson Immuno Research Laboratory) in PBS at 4° C. overnight. The plates were washed three times with PBST, and blocked with PBS containing 3% BSA at room temperature for 1 hour. The N-terminal biotinylated peptides were dissolved in Milli Q water to a concentration of 2 mg/mL, then further diluted to a concentration of 2 μg/mL with PBS. 50 μl of the diluted peptide was applied to the streptavidin-coated plates and incubated at 4° C. overnight. 2 μg/mL of biotinylated human alpha-synuclein was used as the positive control. The plates were washed three times with PBST before use. Purified antibody was diluted by serial dilution methods, from 20 μg/mL to 1 ng/mL, and 50 μL of the antibody solution was added to the peptide-coated wells. The plates were incubated for 1 hour at room temperature, then washed three times with PBST. Secondary detection antibody (goat anti-rat HRP (obtained from Southern Biotech)) was added with 1:5,000 dilutions and incubated for 1 hour at room temperature, then washed three times with PBST. Plates were developed with 50 μL/well of TMB substrate (Thermo Fisher) and quenched with 50 μL/well of 1 N sulfuric acid. The signal was quantified on a BioTek® plate reader at A450. A parallel repeat was performed for each peptide in a separate plate.

[2] = target: T2, asyn_113-127_116A (human); experiment: Ala-scan peptide ELISA, row C, run 2
T2 construct: substitution is already in the entry; also called pep5
T2 peptide: Biotin-LEDAPVDPDNEAYEM
Procedure: as §1

[3] = target: T3, asyn_113-127_121A (human); experiment: Ala-scan peptide ELISA, row C, run 2
T3 construct: substitution is already in the entry; also called pep10
T3 peptide: Biotin-LEDMPVDPANEAYEM
Procedure: as §1

[4] = target: T4, asyn_113-127_124G (human); experiment: Ala-scan peptide ELISA, row C, run 2
T4 construct: substitution is already in the entry; also called pep13
T4 peptide: Biotin-LEDMPVDPDNEGYEM
Procedure: as §1

[5] = target: T5, asyn_113-127_118A (human); experiment: Ala-scan peptide ELISA, row C, run 2
T5 construct: substitution is already in the entry; also called pep7
T5 peptide: Biotin-LEDMPADPDNEAYEM
Procedure: as §1

[6] = target: T6, asyn_113-127_117A (human); experiment: Ala-scan peptide ELISA, row C, run 2
T6 construct: substitution is already in the entry; also called pep6
T6 peptide: Biotin-LEDMAVDPDNEAYEM
Procedure: as §1

[7] = target: T7, asyn_113-127 (human); experiment: Ala-scan peptide ELISA, row C, run 2
T7 construct: also called pep1
T7 peptide: Biotin-LEDMPVDPDNEAYEM
Procedure: as §1

[8] = target: T8, asyn_113-127_123A (human); experiment: Ala-scan peptide ELISA, row C, run 2
T8 construct: substitution is already in the entry; also called pep12
T8 peptide: Biotin-LEDMPVDPDNAAYEM
Procedure: as §1

[9] = target: T9, asyn_113-127_124P (human); experiment: Ala-scan peptide ELISA, row C, run 2
T9 construct: substitution is already in the entry; also called pep14
T9 peptide: Biotin-LEDMPVDPDNEPYEM
Procedure: as §1

[10] = target: T10, asyn_113-127_115A (human); experiment: Ala-scan peptide ELISA, row C, run 2
T10 construct: substitution is already in the entry; also called pep4
T10 peptide: Biotin-LEAMPVDPDNEAYEM
Procedure: as §1

[11] = target: T11, asyn_113-127_113A (human); experiment: Ala-scan peptide ELISA, row C, run 2
T11 construct: substitution is already in the entry; also called pep2
T11 peptide: Biotin-AEDMPVDPDNEAYEM
Procedure: as §1

[12] = target: T12, asyn_113-127_120A (human); experiment: Ala-scan peptide ELISA, row C, run 2
T12 construct: substitution is already in the entry; also called pep9
T12 peptide: Biotin-LEDMPVDADNEAYEM
Procedure: as §1

[13] = target: T13, asyn_113-127_114A (human); experiment: Ala-scan peptide ELISA, row C, run 2
T13 construct: substitution is already in the entry; also called pep3
T13 peptide: Biotin-LADMPVDPDNEAYEM
Procedure: as §1

[14] = target: T14, asyn_113-127_125A (human); experiment: Ala-scan peptide ELISA, row C, run 2
T14 construct: substitution is already in the entry; also called pep15
T14 peptide: Biotin-LEDMPVDPDNEAAEM
Procedure: as §1

[15] = target: T15, asyn_113-127_119A (human); experiment: Ala-scan peptide ELISA, row C, run 2
T15 construct: substitution is already in the entry; also called pep8
T15 peptide: Biotin-LEDMPVAPDNEAYEM
Procedure: as §1

[16] = target: T16, biotinylated human alpha-synuclein (human, UniProt P37840 1-140); experiment: Ala-scan peptide ELISA, row C, run 2
Procedure: as §1

[17] = target: T6, asyn_113-127_117A; experiment: Ala-scan peptide ELISA, row A, run 2; further: test concentration or dose not given here
[18] = target: T11, asyn_113-127_113A; experiment: Ala-scan peptide ELISA, row A, run 2; further: test concentration or dose not given here
[19] = target: T17, asyn_113-127_122A (human); experiment: Ala-scan peptide ELISA, row G, run 1
T17 construct: substitution is already in the entry; also called pep11
T17 peptide: Biotin-LEDMPVDPDAEAYEM
Procedure: as §1

[20] = target: T1, asyn_113-127_126A; experiment: Ala-scan peptide ELISA, row G, run 1
Procedure: as §1

[21] = target: T2, asyn_113-127_116A; experiment: Ala-scan peptide ELISA, row G, run 1
Procedure: as §1

[22] = target: T3, asyn_113-127_121A; experiment: Ala-scan peptide ELISA, row G, run 1
Procedure: as §1

[23] = target: T4, asyn_113-127_124G; experiment: Ala-scan peptide ELISA, row G, run 1
Procedure: as §1

[24] = target: T5, asyn_113-127_118A; experiment: Ala-scan peptide ELISA, row G, run 1
Procedure: as §1

[25] = target: T6, asyn_113-127_117A; experiment: Ala-scan peptide ELISA, row G, run 1
Procedure: as §1

[26] = target: T7, asyn_113-127; experiment: Ala-scan peptide ELISA, row G, run 1
Procedure: as §1

[27] = target: T8, asyn_113-127_123A; experiment: Ala-scan peptide ELISA, row G, run 1
Procedure: as §1

[28] = target: T18, asyn_113-127_127A (human); experiment: Ala-scan peptide ELISA, row G, run 1
T18 construct: substitution is already in the entry; also called pep17
T18 peptide: Biotin-LEDMPVDPDNEAYEA
Procedure: as §1

[29] = target: T9, asyn_113-127_124P; experiment: Ala-scan peptide ELISA, row G, run 1
Procedure: as §1

[30] = target: T10, asyn_113-127_115A; experiment: Ala-scan peptide ELISA, row G, run 1
Procedure: as §1

[31] = target: T11, asyn_113-127_113A; experiment: Ala-scan peptide ELISA, row G, run 1
Procedure: as §1

[32] = target: T12, asyn_113-127_120A; experiment: Ala-scan peptide ELISA, row G, run 1
Procedure: as §1

[33] = target: T13, asyn_113-127_114A; experiment: Ala-scan peptide ELISA, row G, run 1
Procedure: as §1

[34] = target: T14, asyn_113-127_125A; experiment: Ala-scan peptide ELISA, row G, run 1
Procedure: as §1

[35] = target: T15, asyn_113-127_119A; experiment: Ala-scan peptide ELISA, row G, run 1
Procedure: as §1

[36] = target: T16, biotinylated human alpha-synuclein; experiment: Ala-scan peptide ELISA, row G, run 1
Procedure: as §1

B1: 20H4 (antibody, rat IgG2b, V domains shown)
VH: AVQLVESGGGLVQPKESLKISCAASGFTFSNAAMYWVRQAPGKGLELLARIRTKPNNYATYHADSVKGRFTISRDDSQSMVYLHMGNLKTEDTAMYYCTADMATGDYWGPGVMVTVSS
VL: DIQMTQSPPVLSVSVGDRVTLSCKASQNINKNLDWYQQKHGEAPKPLIYSTNNLQTGVPSRFSGSGSGTDYTLTISSLQPEDVATYYCYQYKSAWTFGGGTKLELR
notes: also called clone 20H4; rat 20H4
A450 [1]: 0.369 OD | A450 [2]: 0.393 OD | A450 [3]: 0.281 OD | A450 [4]: 0.295 OD | A450 [5]: 0.44 OD | A450 [6]: 0.441 OD | A450 [7]: 0.307 OD | A450 [8]: 0.377 OD | A450 [9]: 0.055 OD | A450 [10]: 0.306 OD | A450 [11]: 0.377 OD | A450 [12]: 0.223 OD | A450 [13]: 0.367 OD | A450 [14]: 0.052 OD | A450 [15]: 0.046 OD | A450 [16]: 0.976 OD | A450 [17]: 0.462 OD | A450 [18]: 0.44 OD | A450 [19]: 0.049 OD | A450 [20]: 0.098 OD | A450 [21]: 0.098 OD | A450 [22]: 0.091 OD | A450 [23]: 0.099 OD | A450 [24]: 0.107 OD | A450 [25]: 0.102 OD | A450 [26]: 0.089 OD | A450 [27]: 0.093 OD | A450 [28]: 0.094 OD | A450 [29]: 0.044 OD | A450 [30]: 0.058 OD | A450 [31]: 0.095 OD | A450 [32]: 0.08 OD | A450 [33]: 0.083 OD | A450 [34]: 0.046 OD | A450 [35]: 0.048 OD | A450 [36]: 0.141 OD
